Results taken from patent US20080220446A1, “Method for Detecting and/or Removing Protein and/or Peptide Comprising a Cross-Beta Structure From an Aqueous Solution Comprising a Protein” (priority 2005, published 2008).

Key:
[1] = ThT fluorescence enhancement by biopharmaceuticals; type: physicochemical; conditions: after alkylation of cysteine residues
Procedure: (§1) Fluorescence of ThT—protein/peptide adducts was measured as follows. […] Fluorescence was measured at 485 nm upon excitation at 435 nm. Background signals from buffer, buffer with ThT and protein/peptide solution without ThT were subtracted from corresponding measurements with protein solution incubated with ThT. Regularly, fluorescence of Aβ was used as a positive control, and fluorescence of FP10, a non-amyloid fibrin fragment^16, was used as a negative control. Fluorescence was measured in triplicate on a Hitachi F-4500 fluorescence spectrophotometer (Ltd., Tokyo, Japan).
β2-GPI was reduced and alkylated as follows. Sixhundredforty μl of β2-GPI stock was mixed with 640 μl of 8 M Urea (cooled solution) in 0.1 M Tris pH-8.2. […]
(§2) Protein therapeutics were obtained from the local hospital pharmacy and analyzed within the expiry limits as stated by the manufacturers.
Fluorescence of Thioflavin T (ThT; Sigma T-3516, St. Louis, Mo., USA) and Congo red (CR; Aldrich Chemical Company Inc., Milwaukee, Wis., USA) was measured on a Hitachi F-4500 spectrophotometer at an excitation wavelength of 435 nm and emission wavelength of 485 nm for ThT and an excitation wavelength of 550 nm and emission wavelength of 595 nm for Congo red. […] Fluorescence was measured in triplicate. Background fluorescence of both protein in buffer and dye-solution were subtracted from the total fluorescence signal. […]

tPA = tPA (Homo sapiens, UniProt P00750); assay: tPA/plasminogen activation assay; type: biochemical; conditions: β2gpi exposed to cardiolipin or alkylated, 100 μg/ml
Procedure: β2-GPI was reduced and alkylated as follows. Sixhundredforty μl of β2-GPI stock was mixed with 640 μl of 8 M Urea (cooled solution) in 0.1 M Tris pH-8.2. The solution was degassed with N2 gas for approximately 6 minutes. From a 1 M DTT stock 12.8 μl was added to the solution, mixed and incubated for 3 hours at room temperature. A 1 M Iodoacetamide (Sigma; I-6125) was prepared, of which 25.6 μl was added to the β2-GPI reaction mixture. The solution was subsequently dialysed against PBS. […] Signals obtained with alkyl-β2gpi are compared with those obtained with native β2gpi starting material and with positive control acid/heat denatured amyloid-like misfolded γ-globulins.
Exiqon Peptide Immobilizer plates were blocked for 1 hour with PBS, 1% Tween20 and rinsed twice with distilled water. The conversion of the chromogenic substrate S-2251 (Chromogenix, Italy) by plasmin was kinetically measured at 37° C. on a Spectramax340 microplate reader at a wavelength of 405 nm. […] Denatured γ-globulins (100 μg/ml) with amyloid-like structure was used as reference and positive control. Lyophilized γ-globulins (Sigma, Mo., USA) were dissolved in a 1(:)1 volume ratio of 1,1,1,3,3,3-hexafluoro-2-propanol and trifluoro-acetic acid and subsequently dried under air. […]
as §2

[2] = Thioflavin T fluorescence of protein solutions; type: physicochemical; conditions: conclusion from ThT fluorescence, Plg-activation assay and TEM
Procedure: as §1
Formulated protein therapeutics were obtained from the local hospital pharmacy and were used as supplied by the manufacturers. […] Lyophilized therapeutics were dissolved according to the manufacturers recommendations. GH, zinc-insulin, Cealb and gelatin were stored at −20, 4, room temperature, 37 and 65° C. Other protein therapeutics were only kept at 4° C., and assayed for the presence of cross-β structure at shown time points. Enhancement in fluorescence of ThT and Congo red was measured with all formulated protein therapeutics. […]
ThT fluorescence of β2GPI was measured as follows. […] In the ThT fluorescence assay, fluorescence of β2GPI in buffer, of CL or DXS500k in buffer, of buffer and ThT alone, and of β2GPI-CL adducts and β2GPI-DXS500k adducts, with or without ThT, was recorded as described above (section ThT fluorescence). In addition, TEM images were recorded with CL, β2GPI from human plasma, with or without CL, and with recombinant β2GPI, as described^5.
To prepare structurally altered ovalbumin (OVA) with amyloid cross-β structures, purified OVA (Sigma, A-7641, lot 071k7094) was heated to 85° C. […] Native OVA (nOVA) and heat-denatured OVA (dOVA) were tested in the ThT fluorescence assay and in the Plg-activation assay. In the fluorescence assay and in the Plg-activation assay, 25 and 100 μg ml^−1 nOVA and dOVA were tested, respectively. […]
MSA (#126674, Calbiochem) was dissolved in 8 M urea, 100 mM Tris-HCl pH 8.2, at 10 mg ml^−1 final concentration. […] The presence of aggregates or fibrils was analyzed using TEM. […]

fibronectin F4,5 = target: T1, fibronectin F4,5 (Homo sapiens, UniProt P02751); assay: Affinity determination ELISA, fibronectin F4,5 on coated (mis)folded proteins; type: binding; conditions: coated protein as labelled
T1 construct: human fibronectin finger 4,5 (Fn F4,5) fragment; made in house; host or cells: HEK293E
Excerpt: (§3) Synthetic genes of human BiP, human fibronectin finger 4,5 (Fn F4,5) fragment, and human tissue-type plasminogen activator finger EGF (tPA F-EGF) fragment were ordered from Geneart (Regensburg, Germany). These DNA constructs were digested using BamHI and NotI, and ligated into vector pABC674 (ABC-expression facility, Utrecht University, The Netherlands), which contains a carboxy-terminal FLAG-tag—His-tag. HEK293E cells were transiently transfected with these constructs using the polyethylene-imine method, and grown for 5-6 days.
(§4) Denatured proteins and their native controls BSA (Sigma, A7906), glycated BSA, Hb (Sigma, H7605), glycated Hb, ovalbumin (Sigma, A6741), heat-denatured misfolded ovalbumin, human γ-globulins (Sigma, G4386), heat-denatured misfolded γ-globulins, alkyl-γ-globulins, lysozyme (ICN Biochemicals, 100831) and alkyl-lysozyme were coated on ELISA plates (Greiner Microlon high-binding, 655092) in 50 mM NaHCO3-buffer pH 9.6. The plates were blocked using Blocking reagent (Roche 1112589). […] Bound protein is detected by the FLAG-tag using 1:3000 anti-FLAG-HRP (Sigma A-8592) in PBS-T, or by 1:1000 Ni-NTA-HRP (Qiagen 34530) in PBS-T. The HRP reaction Is performed using the TMB substrate (Biosource 4501103 or Tebu Bio 101TMB100-500), stopped using 10% H2SO4 and absorbance was measured at 450 nm.

tPA F-EGF = target: T2, tPA F-EGF (Homo sapiens, UniProt P00750); assay: Affinity determination ELISA, tPA F-EGF on coated (mis)folded proteins; type: binding; conditions: coated protein as labelled, relative to native control
T2 construct: made in house; host or cells: HEK293E
T2 sequence (P00750 36-120 limits assumed): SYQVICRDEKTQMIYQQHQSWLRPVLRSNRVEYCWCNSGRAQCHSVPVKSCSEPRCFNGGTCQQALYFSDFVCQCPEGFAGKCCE
Excerpt: as §3, §4

Sequence of tPA (P00750 36-562): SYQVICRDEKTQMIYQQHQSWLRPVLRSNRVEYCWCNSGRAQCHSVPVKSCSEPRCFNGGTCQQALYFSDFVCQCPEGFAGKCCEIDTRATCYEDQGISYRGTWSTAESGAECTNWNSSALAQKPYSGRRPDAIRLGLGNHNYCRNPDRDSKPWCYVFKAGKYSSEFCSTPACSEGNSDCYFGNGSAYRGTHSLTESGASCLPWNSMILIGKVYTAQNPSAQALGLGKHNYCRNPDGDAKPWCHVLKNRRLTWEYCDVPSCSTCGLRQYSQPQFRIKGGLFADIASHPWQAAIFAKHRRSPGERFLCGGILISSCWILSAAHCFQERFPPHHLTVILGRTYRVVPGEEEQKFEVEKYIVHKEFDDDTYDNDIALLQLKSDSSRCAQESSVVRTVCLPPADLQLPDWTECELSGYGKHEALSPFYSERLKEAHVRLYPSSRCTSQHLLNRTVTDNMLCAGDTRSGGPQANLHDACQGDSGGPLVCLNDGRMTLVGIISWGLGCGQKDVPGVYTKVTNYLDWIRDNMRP
T1 sequence (P02751 182-276 limits assumed): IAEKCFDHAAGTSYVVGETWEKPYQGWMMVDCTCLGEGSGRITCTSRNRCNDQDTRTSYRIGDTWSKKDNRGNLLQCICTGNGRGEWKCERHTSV

B1: alkyl-β2gpi: reduced and alkylated β2-glycoprotein I (protein)
chain: GRTCPKPDDLPFSTVVPLKTFYEPGEEITYSCKPGYVSRGGMRKFICPLTGLWPINTLKCTPRVCPFAGILENGAVRYTTFEYPNTISFSCNTGFYLNGADSAKCTEEGKWSPELPVCAPIICPPPSIPTFATLRVYKPSAGNNSLYRDTAVFECLPQHAMFGNDTITCTTHGNWTKLPECREVKCPFPSRPDNGFVNYPAKPTLYYKDKATFGCHDGYSLDGPEEIECTKLGNWSAMPSCKASCKVPVKKATVVYQGERVKIQEKFKNGMLHGDKVSFFCKNKEKKCSYTEDAQCIDGTIEVPKCFKEHSSLAFWKTDASDVKPC
Which results are given for B1?
Thioflavin T fluorescence [1]: enhanced Thioflavin T fluorescence; ability to activate tPA/plasminogen (tPA): amyloid-like properties

B2: heat-denatured OVA: ovalbumin heated to 85° C. (protein)
chain: GSIGAASMEFCFDVFKELKVHHANENIFYCPIAIMSALAMVYLGAKDSTRTQINKVVRFDKLPGFGDSIEAQCGTSVNVHSSLRDILNQITKPNDVYSFSLASRLYAEERYPILPEYLQCVKELYRGGLEPINFQTAADQARELINSWVESQTNGIIRNVLQPSSVDSQTAMVLVNAIVFKGLWEKAFKDEDTQAMPFRVTEQESKPVQMMYQIGLFRVASMASEKMKILELPFASGTMSMLVLLPDEVSGLEQLESIINFEKLTEWTSSNVMEERKIKVYLPRMKMEEKYNLTSVLMAMGITDVFSSSANLSGISSAESLKISQAVHAAHAEINEAGREVVGSAEAGVDAASVSEEFRADHPFLFCIKHIATNAVLFFGRCVSP
For B2, which “presence of cross-β structure conformation” value [2] is on record?
Its value is “comprise the cross-β structure conformation”.

What about the “affinity for fibronectin F4,5” value (fibronectin F4,5) of the same molecule?
Its value is “clear difference in binding affinity”.

What about the “binding of tPA F-EGF” value (tPA F-EGF) of the same molecule?
Its value is “Much lower binding”.
